Consider six molecules from patent US7960513B2, “Antibody against a human ADAM protease” (Monash University, priority 2004, dated 2011).

The subject of data set [1] is EphA3/HEK293 cells. The experiment in a line: Ephrin-A5 cleavage and internalisation in EphA3-expressing cells treated with clustered ephrin-A5-Fc / ephrinA5-Fc beads. It is filed as cell-based, human. As to the method:
FIG. 1. EphA3-ADAM10 association, ephrin-A5 cleavage and ephrin internalisation. • A. Association of ADAM10 with EphA3 in LiBr melanoma cells and parental or stably transfected EphA3/HEK293 cells. The cells were treated with clustered ephrin-Fc (A5 or A2) or were left untreated (−) prior to lysis. Anti-EphA3 immunoprecipitates from lysates were analysed by Western blot for endogenous ADAM10 (“p” and “m” indicate the pro (unprocessed) and mature (processed) forms of ADAM10). Aliquots from immunoprecipitates were blotted for EphA3 levels to indicate loading (lower panel). […] EphA3/HEK293 or ephrin-A5/HEK293 cells were transfected to express HA-tagged ADAM10ΔPM. Western Blots of anti-HA immuno-precipitates were analysed with antibodies against ephrin-A5 and EphA3, parallel control samples with anti-ADAM10 antibodies. Lysates of ephrin-A5/HEK 293 cells were also extracted with Protein-A Sepharose-bound EphA3 Fc and analysed with anti-ephrin-A5 antibodies. • C. […] Pooled cell lysates and supernatants were pre-cleared with excess Protein-A Sepharose, cleaved ephrin-A5 was extracted using EphA3-Fc coupled to Protein-A Sepharose and analysed by anti-ephrin-A5 immuno-blot. Recombinant, monomeric, single-chain ephrin-A5 (Himanen et al., 2004, Nat Neurosci. 7 501-9; ephrin std) was analysed in parallel. • D. Ephrin-A5 cleavage and internalisation are inhibited by dominant-negative ADAM10. […]

For data set [2], the target named is T1, EphA3/ephrin-A5 complex (Homo sapiens, UniProt P29320+P52803).
T1 construct: incubated with Fc-tagged ectodomains of Eph-A3, EphB2, EphB4 and ephrin-A2, ephrin-A5, ephrin-B2 (R&D systems)
T1 sequence (P29320 21-541 limits assumed): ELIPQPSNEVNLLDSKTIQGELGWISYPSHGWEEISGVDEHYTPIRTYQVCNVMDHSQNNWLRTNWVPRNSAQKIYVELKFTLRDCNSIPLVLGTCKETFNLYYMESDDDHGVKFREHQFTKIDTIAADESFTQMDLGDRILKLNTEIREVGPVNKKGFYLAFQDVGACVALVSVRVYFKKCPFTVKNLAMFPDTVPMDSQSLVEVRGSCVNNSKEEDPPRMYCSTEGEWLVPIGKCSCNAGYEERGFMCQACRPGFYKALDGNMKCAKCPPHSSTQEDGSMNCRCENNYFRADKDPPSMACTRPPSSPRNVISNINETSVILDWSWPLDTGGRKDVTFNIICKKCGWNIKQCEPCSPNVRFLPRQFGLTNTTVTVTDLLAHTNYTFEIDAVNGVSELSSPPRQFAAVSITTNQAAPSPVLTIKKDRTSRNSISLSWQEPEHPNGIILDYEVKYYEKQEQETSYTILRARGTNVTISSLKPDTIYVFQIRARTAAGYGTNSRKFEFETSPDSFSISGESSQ
T1 sequence (P52803 21-203 limits assumed): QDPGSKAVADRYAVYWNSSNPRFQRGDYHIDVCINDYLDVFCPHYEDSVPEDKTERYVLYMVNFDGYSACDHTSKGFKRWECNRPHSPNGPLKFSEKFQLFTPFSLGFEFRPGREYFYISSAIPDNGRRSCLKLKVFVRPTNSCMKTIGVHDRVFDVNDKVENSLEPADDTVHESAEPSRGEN
The experiment in a line: In vitro binding (Protein-A pull-down) assay. Particulars: EphA3-Fc plus untagged ephrin-A5. On the procedure: Pull-down experiments were done as follows: ADAM10D+C, ADAM17D+C w.t. or the alanine mutants (˜15 μg) were incubated with Fc-tagged ectodomains of Eph-A3, EphB2, EphB4 and ephrin-A2, ephrin-A5, ephrin-B2 (R&D systems) at 4° C. for 30 min in 500 μL of binding buffer containing 10 mM HEPES (pH 7.4), 150 mM NaCl and 0.05% of Triton X-100. To test binding to the preformed EphA3/ephrin-A5 complex, 5 μg of the untagged ephrin-A5 was incubated with Fc tagged EphA3 for 30 min at 4° C. followed by the addition of ADAM10. The proteins were incubated for an additional 30 min., when Protein-A-Sepharose (Amersham) beads were added to the reaction mixture and shaken at 4° C. for 2h. The beads were then harvested by centrifugation, washed once with 500 μl of binding buffer and the bound proteins were separated on a 10-20% gradient polyacrylamide gel. The binding of the individual ADAM domains was carried out likewise using 15 μg of the disintegrin and 8 μg of the cysteine-rich domain.

In data set [3] the target is T2, EphA3/ephrin-A5 complex on cells (cell-surface EphA3 with pre-clustered ephrin-A5-Fc), P29320.
T2 chain 1: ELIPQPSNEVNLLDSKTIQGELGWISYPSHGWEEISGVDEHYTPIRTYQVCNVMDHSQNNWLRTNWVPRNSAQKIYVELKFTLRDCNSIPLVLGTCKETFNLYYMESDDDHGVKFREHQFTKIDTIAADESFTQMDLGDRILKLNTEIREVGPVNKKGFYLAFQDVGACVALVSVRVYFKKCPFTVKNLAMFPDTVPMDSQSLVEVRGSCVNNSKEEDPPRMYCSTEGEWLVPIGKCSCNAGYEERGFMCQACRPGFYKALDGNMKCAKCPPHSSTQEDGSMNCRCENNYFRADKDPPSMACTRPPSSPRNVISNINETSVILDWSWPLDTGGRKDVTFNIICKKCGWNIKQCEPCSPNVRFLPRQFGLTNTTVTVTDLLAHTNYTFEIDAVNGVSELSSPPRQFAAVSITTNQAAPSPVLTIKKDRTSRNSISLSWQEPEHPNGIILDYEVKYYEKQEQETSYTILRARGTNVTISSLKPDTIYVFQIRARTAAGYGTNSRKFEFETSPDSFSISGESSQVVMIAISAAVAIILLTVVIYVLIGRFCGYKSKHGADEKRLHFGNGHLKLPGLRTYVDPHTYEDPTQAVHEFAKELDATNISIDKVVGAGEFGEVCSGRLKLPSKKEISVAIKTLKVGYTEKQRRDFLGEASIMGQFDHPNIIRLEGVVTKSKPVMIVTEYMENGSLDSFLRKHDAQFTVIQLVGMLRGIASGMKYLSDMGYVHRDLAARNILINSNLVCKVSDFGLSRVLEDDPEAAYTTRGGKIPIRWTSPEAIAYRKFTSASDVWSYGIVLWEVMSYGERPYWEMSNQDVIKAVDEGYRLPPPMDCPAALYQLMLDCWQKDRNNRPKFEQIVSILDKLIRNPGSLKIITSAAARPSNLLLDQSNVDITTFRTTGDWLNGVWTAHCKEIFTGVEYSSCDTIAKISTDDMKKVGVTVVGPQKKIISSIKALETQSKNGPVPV
T2 chain 2: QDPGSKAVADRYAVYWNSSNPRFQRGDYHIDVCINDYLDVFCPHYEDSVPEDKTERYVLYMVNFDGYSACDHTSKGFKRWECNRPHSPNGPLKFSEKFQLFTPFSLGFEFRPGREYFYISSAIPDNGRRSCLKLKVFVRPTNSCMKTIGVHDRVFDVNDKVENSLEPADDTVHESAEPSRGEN

For `CC(C)C[C@H](CC(=O)NO)C(=O)N[C@@H](Cc1ccc2ccccc2c1)C(=O)N[C@@H](C)C(=O)NCCN` [TAPI], the “ephrin-A5 cleavage and internalisation” value in data set [1] (pretreated with 50 μM TAPI1 (1h)) is given as “inhibited”.

In the case of `c1cnc2c(c1)ccc1cccnc12` [1,10-O-Phenanthroline], the “ephrin-A5 cleavage and internalisation” value in data set [1] (pretreated with 1 mM OPN (4h)) was “inhibited”.

B1: ADAM10D+C[EEE-A]: ADAM10D+C with Glu573, Glu578 and Glu579 mutated to alanines (protein)
chain: SGQPICGNGMVEQGEECDCGYSDQCKDECCYDANQPEGKKCKLKPGKQCSPSQGPCCTAHCAFKSKTEKCRDDSDCAKEGICNGITALCPASDPKPNFTDCNRHTQVCINGQCAGSICAKHGLAACTCASSDGKDDKELCHVCCMKKMEPSTCASTGSVQWNKYFLGRTITLQPGSPCNDFRGYCDVFMRCR
Regarding B1, the “binding to EphA3/ephrin-A5 complex” value in data set [2] is “does not bind”.

B2: ADAM10D+C[RDD-A]: ADAM10D+C with Ala substitutions of Arg525, Asp526, Asp527 (protein)
chain: SGQPICGNGMVEQGEECDCGYSDQCKDECCYDANQPEGKKCKLKPGKQCSPSQGPCCTAHCAFKSKTEKCAAASDCAKEGICNGITALCPASDPKPNFTDCNRHTQVCINGQCAGSICEKHGLEECTCASSDGKDDKELCHVCCMKKMEPSTCASTGSVQWNKYFLGRTITLQPGSPCNDFRGYCDVFMRCR
Take B2: the “binding to EphA3/ephrin-A5 complex” value in data set [2] is listed as “retains wild-type binding affinity”.

B3: full-length ADAM10[EEE-A] (protein)
chain: TTVAEKNTCQLYIQTDHLFFKYYGTREAVIAQISSHVKAIDTIYQTTDFSGIRNISFMVKRIRINTTADEKDPTNPFRFPNIGVEKFLELNSEQNHDDYCLAYVFTDRDFDDGVLGLAWVGAPSGSSGGICEKSKLYSDGKKKSLNTGIITVQNYGSHVPPKVSHITFAHEVGHNFGSPHDSGTECTPGESKNLGQKENGNYIMYARATSGDKLNNNKFSLCSIRNISQVLEKKRNNCFVESGQPICGNGMVEQGEECDCGYSDQCKDECCYDANQPEGKKCKLKPGKQCSPSQGPCCTAHCAFKSKTEKCRDDSDCAKEGICNGITALCPASDPKPNFTDCNRHTQVCINGQCAGSICAKHGLAACTCASSDGKDDKELCHVCCMKKMEPSTCASTGSVQWNKYFLGRTITLQPGSPCNDFRGYCDVFMRCRLVDADGPLARLKKAIFSPELYENIAEWIVAYWWAVLLMGIALIMLMAGFIKICSVHTPSSNPKLPPPKPLPGTLKRRRPPQPIQQPQRQRPRESYQMGHMRR
As for B3, in data set [3], the “ephrin-A5 cleavage (cleaved ephrin-A5 recovered with EphA3-Fc, anti-ephrin-A5 Western blot)” value is “overexpression of mutant ADAM10 with Ala or Lys substitutions of the three Glu residues or lacking the protease domain, effectively inhibited ephrin-A5 cleavage”.

B4: full-length ADAM10 with lysine (3K) substitutions of Glu573, 578, 579 (protein)
chain: TTVAEKNTCQLYIQTDHLFFKYYGTREAVIAQISSHVKAIDTIYQTTDFSGIRNISFMVKRIRINTTADEKDPTNPFRFPNIGVEKFLELNSEQNHDDYCLAYVFTDRDFDDGVLGLAWVGAPSGSSGGICEKSKLYSDGKKKSLNTGIITVQNYGSHVPPKVSHITFAHEVGHNFGSPHDSGTECTPGESKNLGQKENGNYIMYARATSGDKLNNNKFSLCSIRNISQVLEKKRNNCFVESGQPICGNGMVEQGEECDCGYSDQCKDECCYDANQPEGKKCKLKPGKQCSPSQGPCCTAHCAFKSKTEKCRDDSDCAKEGICNGITALCPASDPKPNFTDCNRHTQVCINGQCAGSICKKHGLKKCTCASSDGKDDKELCHVCCMKKMEPSTCASTGSVQWNKYFLGRTITLQPGSPCNDFRGYCDVFMRCRLVDADGPLARLKKAIFSPELYENIAEWIVAYWWAVLLMGIALIMLMAGFIKICSVHTPSSNPKLPPPKPLPGTLKRRRPPQPIQQPQRQRPRESYQMGHMRR
In the case of B4, the “ephrin-A5 cleavage (cleaved ephrin-A5 recovered with EphA3-Fc, anti-ephrin-A5 Western blot)” value in data set [3] was “overexpression of mutant ADAM10 with Ala or Lys substitutions of the three Glu residues or lacking the protease domain, effectively inhibited ephrin-A5 cleavage”.
